1 molecule from patent US20070031511A1, “Method of treatment” (priority 2003, published 2007) can be followed below.

For assay [1], the target named is Ggly receptor on IMGE-5 cells. Description: cell-based or functional assay.
For assay [2], the target named is Ggly receptor on IMGE-5 cells. Description: [125I]-Ggly binding to IMGE-5 cells in the presence of 2 moles Bi3+/mole Ggly.

B1: glycine-extended gastrin17 (Ggly) (peptide)
peptide: XGPWLEEEEEAYGWMDFG
modifications: N-terminal pyroglutamate (Z); 125I-iodinated (IODO-GEN) in the receptor binding assay
For B1, the ED50 (nM), proliferation of IMGE cells, thymidine uptake in assay [1] amounted to 0.8 nM. For the same molecule, the % inhibition of binding by bismuth ions in assay [2] was 50%.
